The values below come from US20210403575A1 (SHANGHAI YICHEN BIOMED, published 2021).

The assay concerns the target T1, hEGFR-hIGg1Fc (SinoBiological) (human, UniProt P00533 25-645).
T1 construct: Bought reagent; also called human EGFR; human EGFR antigen; not shown: human IgG1 Fc
The assay is described as follows: ELISA, coated hEGFR-hIgG1Fc.

B1: aPDL1ScFv-L1-aEGFRL (bispecific antibody)
heavy: QVQLQESGPGLVKPSETLSLTCTVSGGSVSSGDYYWTWIRQSPGKGLEWIGHIYYSGNTNYNPSLKSRLTISIDTSKTQFSLKLSSVTAADTAIYYCVRDRVTGAFDIWGQGTMVTVSSASTKGPSVFPLAPSSKSTSGGTAALGCLVKDYFPEPVTVSWNSGALTSGVHTFPAVLQSSGLYSLSSVVTVPSSSLGTQTYICNVNHKPSNTKVDKKVEPKSCDKTHTCPPCPAPPVAGPSVFLFPPKPKDTLMISRTPEVTCVVVDVSHEDPEVKFNWYVDGVEVHNAKTKPREEQYNSTYRVVSVLTVLHQDWLNGKEYKCKVSNKGLPSSIEKTISKAKGQPREPQVYTLPPSRDELTKNQVSLTCLVKGFYPSDIAVEWESNGQPENNYKTTPPVLDSDGSFFLYSKLTVDKSRWQQGNVFSCSVMHEALHNHYTQKSLSLSPGK
light: not shown
notes: also called aPDL1 scfv-aEGFR fusion
Consider B1, for which the binding result is “binds”.

B2: aPDL1ScFv-L2-aEGFRL (bispecific antibody)
heavy: QVQLQESGPGLVKPSETLSLTCTVSGGSVSSGDYYWTWIRQSPGKGLEWIGHIYYSGNTNYNPSLKSRLTISIDTSKTQFSLKLSSVTAADTAIYYCVRDRVTGAFDIWGQGTMVTVSSASTKGPSVFPLAPSSKSTSGGTAALGCLVKDYFPEPVTVSWNSGALTSGVHTFPAVLQSSGLYSLSSVVTVPSSSLGTQTYICNVNHKPSNTKVDKKVEPKSCDKTHTCPPCPAPPVAGPSVFLFPPKPKDTLMISRTPEVTCVVVDVSHEDPEVKFNWYVDGVEVHNAKTKPREEQYNSTYRVVSVLTVLHQDWLNGKEYKCKVSNKGLPSSIEKTISKAKGQPREPQVYTLPPSRDELTKNQVSLTCLVKGFYPSDIAVEWESNGQPENNYKTTPPVLDSDGSFFLYSKLTVDKSRWQQGNVFSCSVMHEALHNHYTQKSLSLSPGK
light: not shown
notes: as for B1
As to B2, the binding result was “binds”.
